Measured values reported in patent publication US20170010270A1 (Chugai, published 2017).

Legend:
[1] = biological target: T1, GPC3 peptide, amino acid position 201-230 (SEQ ID NO: 11) (human); assay: ELISA on immobilised peptide
T1 construct: synthetic 30-residue peptide of GPC3
T1 peptide: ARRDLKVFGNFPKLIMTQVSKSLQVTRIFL
Experimental: (§1) In order to identify more detailed epitopes for the antibodies, the amino acid sequence of GPC3 was divided into peptides of 30 residues containing 10-residue overlaps, and the corresponding peptides were synthesized (SEQ ID NOs: 1 to 29 in Table 2). Each peptide thus synthesized was dissolved at a concentration of 1 mg/mL in dimethyl sulfoxide and then diluted to 1 μg/mL with PBS. The diluted peptide solution was added at 70 μL/well to a 96-well plate and immobilized thereon at room temperature for 1 hour. After removal of unimmobilized peptides, 20% Blocking-one (Nacalai Tesque, Inc.) was added thereto as a blocking buffer solution at 200 μL/well, and the plate was blocked overnight. After removal of the blocking buffer solution, each well was washed with TBS-T three times, and each antibody diluted to 2 μg/mL with a blocking buffer was then added thereto at 70 μL/well. One hour later, the antibody was removed, and each well was washed three times by the addition of TBS-T at 200 μL/well. An HRP-bound anti-mouse antibody was added at 70 μL/well to each well and reacted therewith for 1 hour. After removal of the antibody, each well was washed with 200 μL/well of TBS-T three times, and a chromogenic reagent ABTS Peroxidase Substrate System (1 component, KPL, Kirkegaard & Perry Laboratories, Inc.) was then added thereto at 70 μL/well and reacted at room temperature for […] to develop color. The reaction was terminated by the addition of 1% SDS at 70 μL/well, and the absorbance at 405 nm was measured using a plate reader.

[2] = biological target: T2, GPC3 peptide, amino acid position 361-390 (SEQ ID NO: 19) (human); assay: ELISA on immobilised peptide
T2 construct: synthetic 30-residue peptide of GPC3
T2 peptide: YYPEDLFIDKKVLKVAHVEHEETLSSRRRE
Experimental: as §1

[3] = biological target: T3, GPC3 peptide, amino acid position 521-550 (SEQ ID NO: 27) (human); assay: ELISA on immobilised peptide
T3 construct: synthetic 30-residue peptide of GPC3
T3 peptide: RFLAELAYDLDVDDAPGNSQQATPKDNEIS
Experimental: as §1

[4] = biological target: T4, GPC3 peptide, amino acid position 301-330 (SEQ ID NO: 16) (human); assay: ELISA on immobilised peptide
T4 construct: synthetic 30-residue peptide of GPC3
T4 peptide: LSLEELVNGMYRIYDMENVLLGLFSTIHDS
Experimental: as §1

[5] = biological target: T5, GPC3 peptide, amino acid position 81-110 (SEQ ID NO: 5) (human); assay: ELISA on immobilised peptide
T5 construct: synthetic 30-residue peptide of GPC3
T5 peptide: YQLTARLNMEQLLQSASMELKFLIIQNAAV
Experimental: as §1

[6] = biological target: T6, GPC3 peptide, amino acid position 461-490 (SEQ ID NO: 24) (human); assay: ELISA on immobilised peptide
T6 construct: synthetic 30-residue peptide of GPC3
T6 peptide: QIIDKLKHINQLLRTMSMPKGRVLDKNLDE
Experimental: as §1

[7] = biological target: T7, GPC3 peptide, amino acid position 1-30 (SEQ ID NO: 1) (human); assay: ELISA on immobilised peptide
T7 construct: synthetic 30-residue peptide of GPC3
T7 peptide: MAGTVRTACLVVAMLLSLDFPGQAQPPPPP
Experimental: as §1

[8] = biological target: T8, GPC3 peptide, amino acid position 121-150 (SEQ ID NO: 7) (human); assay: ELISA on immobilised peptide
T8 construct: synthetic 30-residue peptide of GPC3
T8 peptide: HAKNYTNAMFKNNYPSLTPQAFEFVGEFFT
Experimental: as §1

[9] = biological target: T9, GPC3 peptide, amino acid position 401-430 (SEQ ID NO: 21) (human); assay: ELISA on immobilised peptide
T9 construct: synthetic 30-residue peptide of GPC3
T9 peptide: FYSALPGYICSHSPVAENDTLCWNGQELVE
Experimental: as §1

[10] = biological target: T10, GPC3 peptide, amino acid position 41-70 (SEQ ID NO: 3) (human); assay: ELISA on immobilised peptide
T10 construct: synthetic 30-residue peptide of GPC3
T10 peptide: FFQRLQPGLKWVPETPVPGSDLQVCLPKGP
Experimental: as §1

[11] = biological target: T11, GPC3 peptide, amino acid position 221-250 (SEQ ID NO: 12) (human); assay: ELISA on immobilised peptide
T11 construct: synthetic 30-residue peptide of GPC3
T11 peptide: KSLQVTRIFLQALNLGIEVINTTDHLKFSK
Experimental: as §1

[12] = biological target: T12, GPC3 peptide, amino acid position 281-310 (SEQ ID NO: 15) (human); assay: ELISA on immobilised peptide
T12 construct: synthetic 30-residue peptide of GPC3
T12 peptide: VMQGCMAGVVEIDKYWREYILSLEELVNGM
Experimental: as §1

[13] = biological target: T13, GPC3 peptide, amino acid position 341-370 (SEQ ID NO: 18) (human); assay: ELISA on immobilised peptide
T13 construct: synthetic 30-residue peptide of GPC3
T13 peptide: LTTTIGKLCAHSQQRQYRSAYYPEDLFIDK
Experimental: as §1

[14] = biological target: T14, GPC3 peptide, amino acid position 21-50 (SEQ ID NO: 2) (human); assay: ELISA on immobilised peptide
T14 construct: synthetic 30-residue peptide of GPC3
T14 peptide: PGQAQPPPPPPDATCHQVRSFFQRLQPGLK
Experimental: as §1

[15] = biological target: T15, GPC3 peptide, amino acid position 501-530 (SEQ ID NO: 26) (human); assay: ELISA on immobilised peptide
T15 construct: synthetic 30-residue peptide of GPC3
T15 peptide: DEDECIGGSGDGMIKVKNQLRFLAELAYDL
Experimental: as §1

[16] = biological target: T16, GPC3 peptide, amino acid position 441-470 (SEQ ID NO: 23) (human); assay: ELISA on immobilised peptide
T16 construct: synthetic 30-residue peptide of GPC3
T16 peptide: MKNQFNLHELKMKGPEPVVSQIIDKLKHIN
Experimental: as §1

[17] = biological target: T17, GPC3 peptide, amino acid position 61-90 (SEQ ID NO: 4) (human); assay: ELISA on immobilised peptide
T17 construct: synthetic 30-residue peptide of GPC3
T17 peptide: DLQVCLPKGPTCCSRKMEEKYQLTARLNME
Experimental: as §1

[18] = biological target: T18, GPC3 peptide, amino acid position 261-290 (SEQ ID NO: 14) (human); assay: ELISA on immobilised peptide
T18 construct: synthetic 30-residue peptide of GPC3
T18 peptide: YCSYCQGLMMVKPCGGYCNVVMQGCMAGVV
Experimental: as §1

[19] = biological target: T19, GPC3 peptide, amino acid position 421-450 (SEQ ID NO: 22) (human); assay: ELISA on immobilised peptide
T19 construct: synthetic 30-residue peptide of GPC3
T19 peptide: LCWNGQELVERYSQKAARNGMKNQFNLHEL
Experimental: as §1

[20] = biological target: T20, GPC3 peptide, amino acid position 241-270 (SEQ ID NO: 13) (human); assay: ELISA on immobilised peptide
T20 construct: synthetic 30-residue peptide of GPC3
T20 peptide: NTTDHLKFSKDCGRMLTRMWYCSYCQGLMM
Experimental: as §1

[21] = biological target: T21, AW3, C-terminally His-tagged recombinant product of positions 1 to 218 of GPC3 (human, UniProt P51654 25-218); assay: Western blot of CHO cell pellets, reducing
T21 construct: Expressed in CHO cells; cell pellets used in reducing Western blot; Construct is stated from position 1; not shown: C-terminal His tag
T21 sequence (P51654 25-218): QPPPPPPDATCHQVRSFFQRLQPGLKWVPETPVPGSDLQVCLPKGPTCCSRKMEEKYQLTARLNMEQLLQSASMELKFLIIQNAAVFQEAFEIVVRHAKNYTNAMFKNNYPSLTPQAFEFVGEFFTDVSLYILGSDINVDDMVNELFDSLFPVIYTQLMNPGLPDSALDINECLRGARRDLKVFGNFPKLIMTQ

[22] = biological target: T22, AW2, C-terminally His-tagged recombinant product of positions 1 to 196 of GPC3 (human, UniProt P51654 25-196); assay: Western blot of CHO cell pellets, reducing
T22 construct: Expressed in CHO cells; cell pellets used in reducing Western blot; Construct is stated from position 1; also called AW2 (1-196); not shown: C-terminal His tag
T22 sequence (P51654 25-196): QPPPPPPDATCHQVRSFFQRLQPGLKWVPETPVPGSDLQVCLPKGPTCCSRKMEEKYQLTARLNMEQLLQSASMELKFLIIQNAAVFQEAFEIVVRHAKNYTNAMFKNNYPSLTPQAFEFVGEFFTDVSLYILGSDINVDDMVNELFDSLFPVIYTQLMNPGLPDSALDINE

B1: GT607 antibody (antibody, IgG1, V domains shown)
VH: EVQLVESGGDVVRPGGSLKLSCAASGFTFSSYGMSWVRQLPDKRLEWVASVGNGGSYRYYPENLKGRFTISRDNTKNTLYLQISGLKSEDTAIYYCARRGAFPYFDVWGAGTTVTVSS
VL: QIVLTQSPAIMSASPGEKVTLACSASSSVTYMHWYQQKSGTSPKRWIYETSKLASGVPPRFSGSGSGTSYSLTISTMEAEDAATYYCQQWSSNPLTFGAGTKLELKR
**Q.** What does the source list for B1?
**A.** binding result [1]: no binding (tested: 2 µg/mL); binding result [2]: no binding (tested: 2 µg/mL); binding result [3]: no binding (tested: 2 µg/mL); binding result [4]: no binding (tested: 2 µg/mL); binding result [5]: no binding (tested: 2 µg/mL); binding result [6]: no binding (tested: 2 µg/mL); binding result [7]: no binding (tested: 2 µg/mL); binding result [8]: no binding (tested: 2 µg/mL); binding result [9]: no binding (tested: 2 µg/mL); binding result [10]: no binding (tested: 2 µg/mL); binding result [11]: no binding (tested: 2 µg/mL); binding result [12]: no binding (tested: 2 µg/mL); binding result [13]: no binding (tested: 2 µg/mL); binding result [14]: no binding (tested: 2 µg/mL); binding result [15]: no binding (tested: 2 µg/mL); binding result [16]: no binding (tested: 2 µg/mL); binding result [17]: no binding (tested: 2 µg/mL); binding result [18]: no binding (tested: 2 µg/mL); binding result [19]: no binding (tested: 2 µg/mL); binding result [20]: no binding (tested: 2 µg/mL); binding result [21]: no binding; binding result [22]: no binding

B2: GT165 antibody (antibody, IgG1, V domains shown)
VH: QVQLQQSGAELVGPGASVKISCKAFGYTFTNHHINWVKQRPGQGLDWIGYINPYNDYTNYNQKFKGKATLTVDKSSSTAYMELSSLTSEDSAVYYCARSDPAWFAYWGQGTLVTVSA
VL: DIQMTQSPSSLSASLGGKVTITCKASQDINKNIAWYQHKPGKGPRLLIWYTYTLQPGIPSRFSGSGSGRDYSFSISNLEPEDIATYYCLQYDNLPFTFGTGTKLEIKR
**Q.** Does B2 bind [1]?
**A.** no binding (tested: 2 µg/mL)

**Q.** Does B2 bind [2]?
**A.** no binding (tested: 2 µg/mL)

**Q.** Does B2 bind [3]?
**A.** no binding (tested: 2 µg/mL)

**Q.** Does B2 bind [4]?
**A.** no binding (tested: 2 µg/mL)

**Q.** Does B2 bind [5]?
**A.** no binding (tested: 2 µg/mL)

**Q.** Does B2 bind [6]?
**A.** no binding (tested: 2 µg/mL)

**Q.** Does B2 bind [7]?
**A.** no binding (tested: 2 µg/mL)

**Q.** Does B2 bind [8]?
**A.** no binding (tested: 2 µg/mL)

**Q.** Does B2 bind [9]?
**A.** no binding (tested: 2 µg/mL)

**Q.** Does B2 bind [10]?
**A.** no binding (tested: 2 µg/mL)

**Q.** Does B2 bind [11]?
**A.** no binding (tested: 2 µg/mL)

**Q.** Does B2 bind [12]?
**A.** no binding (tested: 2 µg/mL)

**Q.** Does B2 bind [13]?
**A.** no binding (tested: 2 µg/mL)

**Q.** Does B2 bind [14]?
**A.** no binding (tested: 2 µg/mL)

**Q.** Does B2 bind [15]?
**A.** no binding (tested: 2 µg/mL)

**Q.** Does B2 bind [16]?
**A.** no binding (tested: 2 µg/mL)

**Q.** Does B2 bind [17]?
**A.** no binding (tested: 2 µg/mL)

**Q.** Does B2 bind [18]?
**A.** no binding (tested: 2 µg/mL)

**Q.** Does B2 bind [19]?
**A.** no binding (tested: 2 µg/mL)

**Q.** Does B2 bind [20]?
**A.** no binding (tested: 2 µg/mL)

**Q.** Does B2 bind [21]?
**A.** no binding

**Q.** Does B2 bind [22]?
**A.** no binding

B3: GT114 antibody (antibody, IgG1, V domains shown)
VH: DVQLQESGPGLVKPSQSLSLTCTVTGYSITSDSAWNWIRQFPGNKLEWMAYIMYSGITSYNPSLKSRISITRDTAKNQFFLQLNSVTTEDSATYYCSRGYWYFDVWGAGTTVTVSS
VL: QIVLTQSPAIMSASLGEEITLTCSASSSVSYMHWYQQKSGTSPKLLIYSTSILASGVPSRFSGSGSGTFYSLTISSVEAEDAADYYCLQWITYRTFGGGTKLEIKR
**Q.** Does B3 bind [1]?
**A.** no binding (tested: 2 µg/mL)

**Q.** Does B3 bind [2]?
**A.** no binding (tested: 2 µg/mL)

**Q.** Does B3 bind [3]?
**A.** no binding (tested: 2 µg/mL)

**Q.** Does B3 bind [4]?
**A.** no binding (tested: 2 µg/mL)

**Q.** Does B3 bind [5]?
**A.** no binding (tested: 2 µg/mL)

**Q.** Does B3 bind [6]?
**A.** no binding (tested: 2 µg/mL)

**Q.** Does B3 bind [7]?
**A.** no binding (tested: 2 µg/mL)

**Q.** Does B3 bind [8]?
**A.** no binding (tested: 2 µg/mL)

**Q.** Does B3 bind [9]?
**A.** no binding (tested: 2 µg/mL)

**Q.** Does B3 bind [10]?
**A.** no binding (tested: 2 µg/mL)

**Q.** Does B3 bind [11]?
**A.** no binding (tested: 2 µg/mL)

**Q.** Does B3 bind [12]?
**A.** no binding (tested: 2 µg/mL)

**Q.** Does B3 bind [13]?
**A.** no binding (tested: 2 µg/mL)

**Q.** Does B3 bind [14]?
**A.** no binding (tested: 2 µg/mL)

**Q.** Does B3 bind [15]?
**A.** no binding (tested: 2 µg/mL)

**Q.** Does B3 bind [16]?
**A.** no binding (tested: 2 µg/mL)

**Q.** Does B3 bind [17]?
**A.** no binding (tested: 2 µg/mL)

**Q.** Does B3 bind [18]?
**A.** no binding (tested: 2 µg/mL)

**Q.** Does B3 bind [19]?
**A.** no binding (tested: 2 µg/mL)

**Q.** Does B3 bind [20]?
**A.** no binding (tested: 2 µg/mL)

**Q.** Does B3 bind [21]?
**A.** no binding

**Q.** Does B3 bind [22]?
**A.** no binding
